Measurements from patent US7314753.

Experiments:
[1] = molecular target: CEA (carcino-embryonic antigen) (UniProt P06731); assay: enzyme activity specificity test, CEA-coated plate; void volume of affinity column 1:1, dilution 1:4
[2] = molecular target: CEA (carcino-embryonic antigen) (UniProt P06731); assay: enzyme activity specificity test, CEA-coated plate; disrupted cell suspension 1:3, dilution 1:2
[3] = molecular target: CEA (carcino-embryonic antigen) (UniProt P06731); assay: enzyme activity specificity test, CEA-coated plate; void volume of affinity column 1:1, dilution 1:256
[4] = molecular target: CEA (carcino-embryonic antigen) (UniProt P06731); assay: enzyme activity specificity test, CEA-coated plate; pH 5.0 eluate 1:3, dilution 1:128
[5] = molecular target: CEA (carcino-embryonic antigen) (UniProt P06731); assay: enzyme activity specificity test, CEA-coated plate; pH 5.0 eluate ultrafiltrate 1:1, dilution 1:4
[6] = molecular target: CEA (carcino-embryonic antigen) (UniProt P06731); assay: enzyme activity specificity test, CEA-coated plate; pH 5.0 eluate 1:3, dilution 1:2
[7] = molecular target: CEA (carcino-embryonic antigen) (UniProt P06731); assay: enzyme activity specificity test, CEA-coated plate; void volume of affinity column 1:1, dilution 1:64
[8] = molecular target: CEA (carcino-embryonic antigen) (UniProt P06731); assay: enzyme activity specificity test, CEA-coated plate; pH 5.0 eluate ultrafiltrate 1:1, dilution 1:2
[9] = molecular target: CEA (carcino-embryonic antigen) (UniProt P06731); assay: enzyme activity specificity test, CEA-coated plate; pH 5.0 eluate 1:3, dilution 1:4
[10] = molecular target: CEA (carcino-embryonic antigen) (UniProt P06731); assay: enzyme activity specificity test, CEA-coated plate; void volume of affinity column 1:1, dilution 1:128
[11] = molecular target: CEA (carcino-embryonic antigen) (UniProt P06731); assay: enzyme activity specificity test, CEA-coated plate; pH 5.0 eluate ultraconcentrate 1:10, dilution 1:32
[12] = molecular target: CEA (carcino-embryonic antigen) (UniProt P06731); assay: enzyme activity specificity test, CEA-coated plate; disrupted cell suspension 1:3, dilution 1:8
[13] = molecular target: CEA (carcino-embryonic antigen) (UniProt P06731); assay: enzyme activity specificity test, CEA-coated plate; pH 5.0 eluate 1:3, dilution 1:16
[14] = molecular target: CEA (carcino-embryonic antigen) (UniProt P06731); assay: enzyme activity specificity test, CEA-coated plate; void volume of affinity column 1:1, dilution 1:2
[15] = molecular target: CEA (carcino-embryonic antigen) (UniProt P06731); assay: enzyme activity specificity test, CEA-coated plate; pH 5.0 eluate ultraconcentrate 1:10, dilution 1:128
[16] = molecular target: CEA (carcino-embryonic antigen) (UniProt P06731); assay: enzyme activity specificity test, CEA-coated plate; void volume of affinity column 1:1, dilution 1:8
[17] = molecular target: CEA (carcino-embryonic antigen) (UniProt P06731); assay: enzyme activity specificity test, CEA-coated plate; pH 5.0 eluate ultrafiltrate 1:1, dilution 1:32
[18] = molecular target: CEA (carcino-embryonic antigen) (UniProt P06731); assay: enzyme activity specificity test, CEA-coated plate; disrupted cell suspension 1:3, dilution 1:4
[19] = molecular target: CEA (carcino-embryonic antigen) (UniProt P06731); assay: enzyme activity specificity test, CEA-coated plate; disrupted cell suspension 1:3, dilution 1:256
[20] = molecular target: CEA (carcino-embryonic antigen) (UniProt P06731); assay: enzyme activity specificity test, CEA-coated plate; pH 5.0 eluate ultraconcentrate 1:10, dilution 1:64
[21] = molecular target: CEA (carcino-embryonic antigen) (UniProt P06731); assay: enzyme activity specificity test, CEA-coated plate; pH 5.0 eluate 1:3, dilution 1:32
[22] = molecular target: CEA (carcino-embryonic antigen) (UniProt P06731); assay: enzyme activity specificity test, CEA-coated plate; void volume of affinity column 1:1, dilution 1:16
[23] = molecular target: CEA (carcino-embryonic antigen) (UniProt P06731); assay: enzyme activity specificity test, CEA-coated plate; pH 5.0 eluate ultrafiltrate 1:1, dilution 1:64
[24] = molecular target: CEA (carcino-embryonic antigen) (UniProt P06731); assay: enzyme activity specificity test, CEA-coated plate; pH 5.0 eluate ultraconcentrate 1:10, dilution 1:256
[25] = molecular target: CEA (carcino-embryonic antigen) (UniProt P06731); assay: enzyme activity specificity test, CEA-coated plate; pH 5.0 eluate ultraconcentrate 1:10, dilution 1:2
[26] = molecular target: CEA (carcino-embryonic antigen) (UniProt P06731); assay: enzyme activity specificity test, CEA-coated plate; pH 5.0 eluate ultraconcentrate 1:10, dilution 1:4
[27] = molecular target: CEA (carcino-embryonic antigen) (UniProt P06731); assay: enzyme activity specificity test, CEA-coated plate; disrupted cell suspension 1:3, dilution 1:128
[28] = molecular target: CEA (carcino-embryonic antigen) (UniProt P06731); assay: enzyme activity specificity test, CEA-coated plate; pH 5.0 eluate 1:3, dilution 1:256
[29] = molecular target: CEA (carcino-embryonic antigen) (UniProt P06731); assay: enzyme activity specificity test, CEA-coated plate; pH 5.0 eluate 1:3, dilution 1:8
[30] = molecular target: CEA (carcino-embryonic antigen) (UniProt P06731); assay: enzyme activity specificity test, CEA-coated plate; pH 5.0 eluate ultraconcentrate 1:10, dilution 1:8
[31] = molecular target: CEA (carcino-embryonic antigen) (UniProt P06731); assay: enzyme activity specificity test, CEA-coated plate; void volume of affinity column 1:1, dilution 1:32
[32] = molecular target: CEA (carcino-embryonic antigen) (UniProt P06731); assay: enzyme activity specificity test, CEA-coated plate; pH 5.0 eluate 1:3, dilution 1:64
[33] = molecular target: CEA (carcino-embryonic antigen) (UniProt P06731); assay: enzyme activity specificity test, CEA-coated plate; pH 5.0 eluate ultraconcentrate 1:10, dilution 1:16
[34] = molecular target: CEA (carcino-embryonic antigen) (UniProt P06731); assay: enzyme activity specificity test, CEA-coated plate; pH 5.0 eluate ultrafiltrate 1:1, dilution 1:8
[35] = molecular target: CEA (carcino-embryonic antigen) (UniProt P06731); assay: enzyme activity specificity test, CEA-coated plate; pH 5.0 eluate ultrafiltrate 1:1, dilution 1:256
[36] = molecular target: CEA (carcino-embryonic antigen) (UniProt P06731); assay: enzyme activity specificity test, CEA-coated plate; disrupted cell suspension 1:3, dilution 1:64
[37] = molecular target: CEA (carcino-embryonic antigen) (UniProt P06731); assay: enzyme activity specificity test, CEA-coated plate; disrupted cell suspension 1:3, dilution 1:32
[38] = molecular target: CEA (carcino-embryonic antigen) (UniProt P06731); assay: enzyme activity specificity test, CEA-coated plate; disrupted cell suspension 1:3, dilution 1:16
[39] = molecular target: CEA (carcino-embryonic antigen) (UniProt P06731); assay: enzyme activity specificity test, CEA-coated plate; pH 5.0 eluate ultrafiltrate 1:1, dilution 1:16
[40] = molecular target: CEA (carcino-embryonic antigen) (UniProt P06731); assay: enzyme activity specificity test, CEA-coated plate; pH 5.0 eluate ultrafiltrate 1:1, dilution 1:128

Sequence of UniProt P06731 (P06731 35-685 limits assumed): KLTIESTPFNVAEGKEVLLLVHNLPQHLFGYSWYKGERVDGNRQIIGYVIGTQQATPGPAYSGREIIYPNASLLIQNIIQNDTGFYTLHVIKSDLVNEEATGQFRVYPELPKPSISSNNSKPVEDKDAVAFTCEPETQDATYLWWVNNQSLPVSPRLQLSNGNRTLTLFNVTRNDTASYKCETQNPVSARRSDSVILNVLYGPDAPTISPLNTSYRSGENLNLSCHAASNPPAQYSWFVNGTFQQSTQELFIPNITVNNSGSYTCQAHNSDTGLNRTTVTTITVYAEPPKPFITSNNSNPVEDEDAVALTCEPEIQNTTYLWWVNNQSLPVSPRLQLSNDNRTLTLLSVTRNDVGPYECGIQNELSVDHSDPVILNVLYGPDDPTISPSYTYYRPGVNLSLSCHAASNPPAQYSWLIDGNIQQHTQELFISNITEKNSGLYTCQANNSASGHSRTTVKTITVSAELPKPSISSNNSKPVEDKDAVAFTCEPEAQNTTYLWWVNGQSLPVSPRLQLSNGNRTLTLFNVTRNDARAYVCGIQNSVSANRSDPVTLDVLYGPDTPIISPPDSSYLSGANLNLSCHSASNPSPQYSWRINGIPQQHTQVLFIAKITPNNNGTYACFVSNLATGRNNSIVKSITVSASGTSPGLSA

B1: Fab BW 431/26-E. coli β-glucuronidase fusion protein (protein)
heavy: MEVQLQESGPGLVRPSQTLSLTCTVSGFTISSGYSWHWVRQPPGRGLEWIGYIQYSGITNYNPSLKSRVTMLVDTSKNQFSLRLSSVTAADTAVYYCAREDYDYHWYFDVWGQGSLVTVTVSSASTKGPSVFPLAPCSRSTSGGTAALGCLVKDYFPEPVTVSWNSGALTSGVHTFPAVLQSSGLYSLSSVVTVPSSSLGTQTYTCNVNHKPSNTKVDKRVELGSGSGSMVRPVETPTREIKKLDGLWAFSLDRENCGIDQRWWESALQESRAIAVPGSFNDQFADADIRNYAGNVWYQREVFIPKGWAGQRIVLRFDAVTHYGKVWVNNQEVMEHQGGYTPFEADVTPYVIAGKSVRITVCVNNELNWQTIPPGMVITDENGKKKQSYFHNFFNYAGIHRSVMLYTTPNTWVDDITVVTHVAQDCNHASVDWQVVANGDVSVELRDADQQVVATGQGTSGTLQVVNPHLWQPGEGYLYELCVTAKSQTECDIYPLRVGIRSVAVKGEQFLINHKPFYFTGFGRHEDADLRGKGFDNVLMVHDHALMDWIGANSYRTSHYPYAEEMLDWADEHGIVVIDETAAVGFNLSLGIGFEAGNKPKELYSEEAVNGETQQAHLQAIKELIARDKNHPSVVMWSIANEPDTRPQGAREYFAPLAEATRKLDPTRPITCVNVMFCDAHTDTISDLFDVLCLNRYYGWYVQSGDLETAEKVLEKELLAWQEKLHQPIIITEYGVDTLAGLHSMYTDMWSEEYQCAWLDMYHRVFDRVSAVVGEQVWNFADFATSQGILRVGGNKKGIFTRDRKPKSAAFLLQKRWTGMNFGEKPQQGGKQ
light: MDIQMTQSPSSLSASVGDRVTITCSTSSSVSYMHWYQQKPGKAPKLLIYSTSNLASGVPSRFSGSGSGTDFTFTISSLQPEDIATYYCHQWSSYPTFGQGTKVEIKRTVAAPSVFIFPPSDEQLKSGTASVVCLLNNFYPREAKVQWKVDNALQSGNSQESVTEQDSKDSTYSLSSTLTLSKADYEKHKVYACEVTHQGLSSPVTKSFNRGEC
Q: B1 was tested. Which relative fluorescence units (FU) [1] did it give?
A: The relative fluorescence units (FU) was 5230 FU.

Q: What about the relative fluorescence units (FU) [2] of the same binder?
A: The relative fluorescence units (FU) was 8180 FU.

Q: And the relative fluorescence units (FU) [3]?
A: The relative fluorescence units (FU) was 46.3 FU.

Q: What about the relative fluorescence units (FU) [4] of the same binder?
A: Its relative fluorescence units (FU) is 302 FU.

Q: What about the relative fluorescence units (FU) [5] of the same binder?
A: Its relative fluorescence units (FU) is 173 FU.

Q: And the relative fluorescence units (FU) [6]?
A: The relative fluorescence units (FU) was 7780 FU.

Q: And the relative fluorescence units (FU) [7]?
A: Its relative fluorescence units (FU) is 214 FU.

Q: And the relative fluorescence units (FU) [8]?
A: The relative fluorescence units (FU) was 74.7 FU.

Q: And the relative fluorescence units (FU) [9]?
A: The relative fluorescence units (FU) was 7570 FU.

Q: And the relative fluorescence units (FU) [10]?
A: Its relative fluorescence units (FU) is 86.2 FU.

Q: What about the relative fluorescence units (FU) [11] of the same binder?
A: The relative fluorescence units (FU) was 5800 FU.

Q: What about the relative fluorescence units (FU) [12] of the same binder?
A: Its relative fluorescence units (FU) is 7530 FU.

Q: What about the relative fluorescence units (FU) [13] of the same binder?
A: The relative fluorescence units (FU) was 4240 FU.

Q: And the relative fluorescence units (FU) [14]?
A: The relative fluorescence units (FU) was 6550 FU.

Q: And the relative fluorescence units (FU) [15]?
A: The relative fluorescence units (FU) was 1650 FU.

Q: What about the relative fluorescence units (FU) [16] of the same binder?
A: The relative fluorescence units (FU) was 3220 FU.

Q: And the relative fluorescence units (FU) [17]?
A: Its relative fluorescence units (FU) is 38.8 FU.

Q: And the relative fluorescence units (FU) [18]?
A: Its relative fluorescence units (FU) is 8150 FU.

Q: What about the relative fluorescence units (FU) [19] of the same binder?
A: Its relative fluorescence units (FU) is 422 FU.

Q: What about the relative fluorescence units (FU) [20] of the same binder?
A: The relative fluorescence units (FU) was 3620 FU.

Q: And the relative fluorescence units (FU) [21]?
A: Its relative fluorescence units (FU) is 1980 FU.

Q: And the relative fluorescence units (FU) [22]?
A: Its relative fluorescence units (FU) is 1480 FU.

Q: What about the relative fluorescence units (FU) [23] of the same binder?
A: The relative fluorescence units (FU) was 25.8 FU.

Q: What about the relative fluorescence units (FU) [24] of the same binder?
A: Its relative fluorescence units (FU) is 666 FU.

Q: And the relative fluorescence units (FU) [25]?
A: The relative fluorescence units (FU) was 7900 FU.

Q: And the relative fluorescence units (FU) [26]?
A: The relative fluorescence units (FU) was 8110 FU.

Q: What about the relative fluorescence units (FU) [27] of the same binder?
A: Its relative fluorescence units (FU) is 1020 FU.

Q: What about the relative fluorescence units (FU) [28] of the same binder?
A: The relative fluorescence units (FU) was 114 FU.

Q: And the relative fluorescence units (FU) [29]?
A: The relative fluorescence units (FU) was 6360 FU.

Q: And the relative fluorescence units (FU) [30]?
A: The relative fluorescence units (FU) was 8040 FU.

Q: What about the relative fluorescence units (FU) [31] of the same binder?
A: The relative fluorescence units (FU) was 525 FU.

Q: What about the relative fluorescence units (FU) [32] of the same binder?
A: Its relative fluorescence units (FU) is 816 FU.

Q: And the relative fluorescence units (FU) [33]?
A: The relative fluorescence units (FU) was 7150 FU.

Q: What about the relative fluorescence units (FU) [34] of the same binder?
A: The relative fluorescence units (FU) was 90.2 FU.

Q: What about the relative fluorescence units (FU) [35] of the same binder?
A: Its relative fluorescence units (FU) is 19.4 FU.

Q: What about the relative fluorescence units (FU) [36] of the same binder?
A: Its relative fluorescence units (FU) is 2510 FU.

Q: And the relative fluorescence units (FU) [37]?
A: The relative fluorescence units (FU) was 4560 FU.

Q: What about the relative fluorescence units (FU) [38] of the same binder?
A: The relative fluorescence units (FU) was 6630 FU.

Q: And the relative fluorescence units (FU) [39]?
A: The relative fluorescence units (FU) was 52.3 FU.

Q: And the relative fluorescence units (FU) [40]?
A: Its relative fluorescence units (FU) is 23.5 FU.
